Experiments:
[1] = target: GARP Y137H/S138G/G139N / TGF-β1 complex (human, UniProt Q14392 20-662; P01137 30-390); experiment: flow cytometry titration on transfected 293T cells; grade of Reduced avidity read by footnote 3
Protocol: Intensities of staining at each concentration of antibody relative to the maximal intensity measured at 5 μg/ml were determined as follows:
The relative staining intensities were plotted according to the concentration of antibody used for staining, and a non-linear regression analysis was used with the Prism software to determine an EC₅₀ value for binding of the antibody to the WT and to each of the various mutant GARP/TGF-β1 complexes. If the ratio between the EC₅₀ measured on the mutant and the EC₅₀ measured on the WT was >2, the mutation was considered to induce a reduced avidity for binding by the antibody. The ratio of EC₅₀ (mutant vs WT) for MHG-8 and LHG-10 are indicated below each mutation on FIG. 19, parts A and B, respectively.

[2] = target: GARP / TGF-β1 Q345A complex (human, UniProt Q14392 20-662; P01137 30-390); experiment: flow cytometry on transfected 293T cells, 5 ug/ml; grade of Loss of binding read by footnote 2
Description: (§1) Resolution of the crystal structure of MHG-8 Fab/GARP/TGF-β1 complexes and analysis with the CONTACT software allowed the identification of 22 amino-acids in GARP, 8 amino-acids in LAP and 6 amino-acids in mature TGF-β1 that are located less than 5 Å away from an amino-acid of the light or heavy chain of the MHG-8 Fab (Tables 7a, b and c, and Table 8). Directed mutagenesis was used to construct plasmids encoding HA-tagged forms of GARP or TGF-β1 that are mutated at one, two, or three of these 36 positions (all mutations constructed are indicated in Table 8). […] Antibodies were used at a saturating concentration of 5 μg/ml for labeling. Binding of each antibody to a given mutant GARP/TGF-β1 complex was compared to their binding to wild type (WT) complexes, by determining an I_{m/wt} value (i.e. intensity of binding to mutant by comparison to WT). This value was calculated as follows: I_{m/wt} of antibody X=[Geom on mutant−Geom on control]/[Geom on WT−Geom on control]
(§2) The level of residual binding of anti-GARP or anti-LAP antibodies to each mutant was then calculated by comparison to WT, taking into account the expression levels of mutant and WT forms as measured with anti-HA antibodies. Residual binding was calculated as follows: Residual binding by an anti-GARP or anti-LAP antibody=[I_{m/wt} with anti-GARP or anti-LAP antibody]/[I_{m/wt} with anti-HA antibody]

[3] = target: GARP T165A / TGF-β1 complex (human, UniProt Q14392 20-662; P01137 30-390); experiment: as above
Description: as §1, §2

[4] = target: GARP / TGF-β1 Q272Y complex (human, UniProt Q14392 20-662; P01137 30-390); experiment: as above
Sequence of GARP / TGF-β1 Q272Y complex (Q14392 20-662 limits assumed, chain 1 of 2): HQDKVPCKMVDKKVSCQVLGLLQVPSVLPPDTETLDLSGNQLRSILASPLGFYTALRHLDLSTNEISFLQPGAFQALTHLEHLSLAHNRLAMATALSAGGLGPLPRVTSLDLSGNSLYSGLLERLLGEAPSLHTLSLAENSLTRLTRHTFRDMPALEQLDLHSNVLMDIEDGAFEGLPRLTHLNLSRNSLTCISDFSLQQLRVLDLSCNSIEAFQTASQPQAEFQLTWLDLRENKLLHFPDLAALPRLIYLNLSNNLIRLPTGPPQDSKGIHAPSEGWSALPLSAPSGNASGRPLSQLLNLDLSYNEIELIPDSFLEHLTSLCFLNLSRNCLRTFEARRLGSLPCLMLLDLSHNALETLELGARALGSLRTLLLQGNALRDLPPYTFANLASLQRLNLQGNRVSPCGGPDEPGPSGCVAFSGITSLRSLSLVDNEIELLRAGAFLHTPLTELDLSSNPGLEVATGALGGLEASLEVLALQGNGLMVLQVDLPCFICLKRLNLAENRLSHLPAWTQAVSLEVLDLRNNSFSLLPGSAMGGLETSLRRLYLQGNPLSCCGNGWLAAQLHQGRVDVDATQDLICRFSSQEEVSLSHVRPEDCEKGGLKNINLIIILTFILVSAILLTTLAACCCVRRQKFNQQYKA
Sequence of GARP / TGF-β1 Q272Y complex (P01137 30-390 Q272Y limits assumed, chain 2 of 2): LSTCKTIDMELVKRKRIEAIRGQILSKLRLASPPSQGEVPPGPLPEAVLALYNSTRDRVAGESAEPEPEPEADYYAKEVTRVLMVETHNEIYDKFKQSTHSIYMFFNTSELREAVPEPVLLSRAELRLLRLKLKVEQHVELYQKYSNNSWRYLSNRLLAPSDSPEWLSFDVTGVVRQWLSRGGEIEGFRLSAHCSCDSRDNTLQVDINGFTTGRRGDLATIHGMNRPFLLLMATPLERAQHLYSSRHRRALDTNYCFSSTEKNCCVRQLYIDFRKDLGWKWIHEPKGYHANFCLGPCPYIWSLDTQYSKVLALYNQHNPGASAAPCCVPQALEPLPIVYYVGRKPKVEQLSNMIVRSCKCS
Description: as §1, §2

[5] = target: GARP / TGF-β1 S337A complex (human, UniProt Q14392 20-662; P01137 30-390); experiment: as above
Description: as §1, §2

[6] = target: GARP T162D / TGF-β1 complex (human, UniProt Q14392 20-662; P01137 30-390); experiment: as above
Description: as §1, §2

[7] = target: GARP L140K/E142L / TGF-β1 complex (human, UniProt Q14392 20-662; P01137 30-390); experiment: as above
Description: as §1, §2

[8] = target: GARP / TGF-β1 H270Y complex (human, UniProt Q14392 20-662; P01137 30-390); experiment: as above
Sequence of GARP / TGF-β1 H270Y complex (Q14392 20-662 limits assumed, chain 1 of 2): as the sequence (Q14392 20-662 limits assumed, chain 1 of 2) above
Sequence of GARP / TGF-β1 H270Y complex (P01137 30-390 H270Y limits assumed, chain 2 of 2): as the sequence (P01137 30-390 Q272Y limits assumed, chain 2 of 2) above, with H241Y, Y243Q counted along it
Description: as §1, §2

[9] = target: GARP R166M/H167E / TGF-β1 complex (human, UniProt Q14392 20-662; P01137 30-390); experiment: as above
Description: as §1, §2

[10] = target: GARP R143A / TGF-β1 complex (human, UniProt Q14392 20-662; P01137 30-390); experiment: as above
Description: as §1, §2

[11] = target: GARP A117R / TGF-β1 complex (human, UniProt Q14392 20-662; P01137 30-390); experiment: as above
Description: as §1, §2

[12] = target: GARP / TGF-β1 K338E complex (human, UniProt Q14392 20-662; P01137 30-390); experiment: as above
Sequence of GARP / TGF-β1 K338E complex (Q14392 20-662 limits assumed, chain 1 of 2): as the sequence (Q14392 20-662 limits assumed, chain 1 of 2) above
Sequence of GARP / TGF-β1 K338E complex (P01137 30-390 K338E limits assumed, chain 2 of 2): as the sequence (P01137 30-390 Q272Y limits assumed, chain 2 of 2) above, with Y243Q, K309E counted along it
Description: as §1, §2

[13] = target: GARP / TGF-β1 A341Y complex (human, UniProt Q14392 20-662; P01137 30-390); experiment: as above
Sequence of GARP / TGF-β1 A341Y complex (Q14392 20-662 limits assumed, chain 1 of 2): as the sequence (Q14392 20-662 limits assumed, chain 1 of 2) above
Sequence of GARP / TGF-β1 A341Y complex (P01137 30-390 A341Y limits assumed, chain 2 of 2): as the sequence (P01137 30-390 Q272Y limits assumed, chain 2 of 2) above, with Y243Q, A312Y counted along it
Description: as §1, §2

[14] = target: GARP M111T/A112G/T113M / TGF-β1 complex (human, UniProt Q14392 20-662; P01137 30-390); experiment: as above
Description: as §1, §2

human TGF-β1 (latent) = target: T1, human TGF-β1 (latent) (human, UniProt P01137 30-390); experiment: FACS, 293T + hTGFB1 only [cont.) B]
T1 construct: from transfected hTGFB1; also called hTGF-β1; hTGFB1
T1 sequence (P01137 30-390 limits assumed): as the sequence (P01137 30-390 Q272Y limits assumed, chain 2 of 2) above, with Y243Q counted along it
Description: No latent TGF-β is detected on their surface with an anti-LAP antibody. Transfection of GARP or TGFB1 alone induces no or low surface LAP, respectively, whereas co-transfection of GARP and TGFB1 induces high surface LAP as a result of latent TGF-β1 binding and presentation by GARP (FIG. 14, part B, left histograms).

B1: LHG-10 (antibody, human IgG1, V domains shown)
VH: EVQLVQPGAELRNSGASVKVSCKASGYRFTSYYIDWVRQAPGQGLEWMGRIDPEDGGTKYAQKFQGRVTFTADTSTSTAYVELSSLRSEDTAVYYCARNEWETVVVGDLMYEYEYWGQGTQVTVSS
VL: DIQMTQSPTSLSASLGDRVTITCQASQSISSYLAWYQQKPGQAPKLLIYGASRLQTGVPSRFSGSGSGTSFTLTISGLEAEDAGTYYCQQYDSLPVTFGQGTKVELK
notes: llama-derived V regions in a full human IgG1
ratio of EC50 (mutant vs WT) [1]: > 2 ratio
residual binding on mutant by comparison to WT [2]: ≥ 50%
residual binding on mutant by comparison to WT [3]: ≥ 50%
residual binding on mutant by comparison to WT [4]: ≥ 50%
residual binding on mutant by comparison to WT [5]: ≥ 50%
residual binding on mutant by comparison to WT [6]: < 50%
residual binding on mutant by comparison to WT [7]: ≥ 50%
residual binding on mutant by comparison to WT [8]: ≥ 50%
residual binding on mutant by comparison to WT [9]: ≥ 50%
residual binding on mutant by comparison to WT [10]: ≥ 50%
residual binding on mutant by comparison to WT [11]: ≥ 50%
residual binding on mutant by comparison to WT [12]: < 50%
residual binding on mutant by comparison to WT [13]: ≥ 50%
residual binding on mutant by comparison to WT [14]: ≥ 50%
binding result (human TGF-β1 (latent)): no binding

Reference: patent US20160251438A1 (LUDWIG INSTITUTE FOR CANCER RESEARCH, published 2016)
